From paper doi:10.1101/2025.06.14.659724

Target: PSR2-PDF1-Cα heterotrimer (not stated | A. thaliana | human) (UniProt E0W4V5)
Assay: cryo-EM structure

In the case of “PSR2-PDF1-Cα heterotrimer (from UniProt E0W4V5;P67775) (complex)”, the stoichiometry N is reported as 2.
